# The supplement of paper PMC10598134
# ± gives the standard deviation.
# Experiment: collision cross section of modified peptide (TIMS, N2, iRT-aligned); higher = larger / more extended gas-phase ion
# Procedure, shortened: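 Values are averages of 1–3 technical replicates of the most abundant feature for each charge state. Collision cross section was obtained from the Mason-Schamp equation after 1/K0 calibration with three reference ions and run-wise alignment to the median iRT peptide deviation. Synthetic peptide pools (iRT standard spiked 1:40) were separated on a 120-min nanoflow C18 gradient at 60 °C, analysed on a timsTOF Pro/HT (dda-PASEF, nitrogen, ~2.4 mbar) and identified with MaxQuant.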
# [1] = charge state: 2, modification: Phospho (Y)
# [2] = charge state: 3, modification: Phospho (Y)
# [3] = charge state: 2, modification: Crotonyl
# [4] = charge state: 3, modification: Crotonyl
# [5] = charge state: 2, modification: hydroxyisobutyryl
# [6] = charge state: 3, modification: hydroxyisobutyryl
# [7] = charge state: 2, modification: Succinyl
# [8] = charge state: 3, modification: Succinyl
# [9] = charge state: 2, modification: Methyl (K)
# [10] = charge state: 3, modification: Methyl (K)
# [11] = charge state: 2, modification: Biotin
# [12] = charge state: 3, modification: Biotin
# [13] = charge state: 3, modification: Trimethyl (K)
# [14] = charge state: 2, modification: Malonyl
# [15] = charge state: 3, modification: Methyl (R)
# [16] = charge state: 3, modification: Dimethyl (K)
# [17] = charge state: 2, modification: GlyGly (K)
# [18] = charge state: 3, modification: GlyGly (K)
# [19] = charge state: 3, modification: Citrullination (R)
# [20] = charge state: 2, modification: Butyryl
# [21] = charge state: 3, modification: Butyryl
# [22] = charge state: 2, modification: Acetyl (K)
# [23] = charge state: 2, modification: Glutarylation
# [24] = charge state: 3, modification: Glutarylation
# [25] = charge state: 3, modification: Acetyl (K)
# [26] = charge state: 2, modification: Dimethyl (K)
sequence,measurement,setting,value
IYHPNVDK [_IY(Phospho (Y))HPNVDK_],collision cross section,[1],353.97 ± 0.065 Å²
same,collision cross section,[2],437.48 Å²
VSPASSVDSNIPSSQGYKK [_VSPASSVDSNIPSSQGYK(Crotonyl)K_],collision cross section,[3],464.78 ± 0.82 Å²
same,collision cross section,[4],560.75 ± 1.6 Å²
SAGSVESPSVSSTHR [_SAGSVESPSVSST(HexNAc (ST))HR_],collision cross section,"charge state: 3, modification: HexNAc (ST)",473.17 ± 1.2 Å²
VGEFSGANKEK [_VGEFSGANK(hydroxyisobutyryl)EK_],collision cross section,[5],364.17 ± 0.9 Å²
same,collision cross section,[6],444.77 Å²
VPTTEKPTVTVNFR [_VPTTEK(hydroxyisobutyryl)PTVTVNFR_],collision cross section,[5],429.55 ± 0.83 Å²
same,collision cross section,[6],512.54 ± 2 Å²
GADFLVTEVENGGSLGSKK [_GADFLVTEVENGGSLGSK(Succinyl)K_],collision cross section,[7],480.22 ± 1.1 Å²
same,collision cross section,[8],554.56 Å²
SKLLFSNTAAQK [_SK(hydroxyisobutyryl)LLFSNTAAQK_],collision cross section,[5],404.35 ± 0.3 Å²
LTEKELAEAASK [_LTEK(hydroxyisobutyryl)ELAEAASK_],collision cross section,[5],392.48 ± 2 Å²
same,collision cross section,[6],455.87 ± 2.2 Å²
VLTANSNPSSPSAAKR [_VLTANSNPSSPSAAK(Methyl (K))R_],collision cross section,[9],432.87 ± 1.5 Å²
same,collision cross section,[10],521.25 ± 1.8 Å²
GFALVGVGSEASSKK [_GFALVGVGSEASSK(Biotin)K_],collision cross section,[11],423.88 ± 1.4 Å²
same,collision cross section,[12],494.71 ± 0.97 Å²
DLGKFQVATDALK [_DLGK(Trimethyl (K))FQVATDALK_],collision cross section,"charge state: 2, modification: Trimethyl (K)",414.1 ± 0.6 Å²
same,collision cross section,[13],492.6 ± 1.8 Å²
TGGTQTDLFTCGKCK [_TGGTQTDLFTCGK(Malonyl)CK_],collision cross section,[14],436.14 ± 0.67 Å²
GFGRGGAESHTFK [_GFGR(Methyl (R))GGAESHTFK_],collision cross section,[15],473.29 ± 3 Å²
DLSTVEALQNLKNLK [_DLSTVEALQNLK(Malonyl)NLK_],collision cross section,[14],481.83 ± 1.5 Å²
ANLEKAQAELVGTADEATR [_ANLEK(Dimethyl (K))AQAELVGTADEATR_],collision cross section,[16],525.41 ± 0.76 Å²
PSVGSQSNQAGQGKR [_PSVGSQSNQAGQGK(Succinyl)R_],collision cross section,[7],415.39 ± 2 Å²
same,collision cross section,[8],455.72 ± 2.4 Å²
ITESVAETAQTIKK [_ITESVAETAQTIK(hydroxyisobutyryl)K_],collision cross section,[5],425.76 ± 3.1 Å²
same,collision cross section,[6],520.92 ± 2 Å²
LQDVSGQLSSSKK [_LQDVSGQLSSSK(GlyGly (K))K_],collision cross section,[17],438.61 ± 1.4 Å²
same,collision cross section,[18],490.05 ± 4.9 Å²
VDVEVPDVSLEGPEGKLK [_VDVEVPDVSLEGPEGK(hydroxyisobutyryl)LK_],collision cross section,[5],470.57 ± 1.1 Å²
same,collision cross section,[6],549.45 ± 27 Å²
VGIDTPDIDIHGPEGKLK [_VGIDTPDIDIHGPEGK(GlyGly (K))LK_],collision cross section,[17],467.27 Å²
same,collision cross section,[18],525.5 ± 1.3 Å²
HELQANCYEEVKDR [_HELQANCYEEVK(Succinyl)DR_],collision cross section,[7],444.39 Å²
same,collision cross section,[8],483.15 ± 3.9 Å²
IINEPTAAAIAYGLDKK [_IINEPTAAAIAYGLDK(Succinyl)K_],collision cross section,[7],465.22 ± 1.4 Å²
same,collision cross section,[8],564.64 ± 0.073 Å²
AVSILPLLGHGVPRLPPGR [_AVSILPLLGHGVPR(Citrullination (R))LPPGR_],collision cross section,[19],569.33 Å²
GDPGLIGPK [_GDP(Hydroxyproline)GLIGPK_],collision cross section,"charge state: 2, modification: Hydroxyproline",312.86 ± 1.3 Å²
LDHLAEKFR [_LDHLAEK(Butyryl)FR_],collision cross section,[20],377.54 ± 1.3 Å²
same,collision cross section,[21],440.5 ± 3.8 Å²
PSVSTKLISK [_PSVSTK(Acetyl (K))LISK_],collision cross section,[22],351 ± 0.96 Å²
VGTASVLQPVKK [_VGTASVLQPVK(Acetyl (K))K_],collision cross section,[22],379.84 ± 0.47 Å²
GAEKTEVAEPR [_GAEK(hydroxyisobutyryl)TEVAEPR_],collision cross section,[5],376.1 ± 9 Å²
YVHADAPTNK [_Y(Nitro (Y))VHADAPTNK_],collision cross section,"charge state: 2, modification: Nitro (Y)",352.73 ± 0.72 Å²
same,collision cross section,"charge state: 3, modification: Nitro (Y)",417.54 ± 1.2 Å²
DASTLQSQKAEGTGDAK [_DASTLQSQK(Gluratylation)AEGTGDAK_],collision cross section,[23],440.54 ± 1.5 Å²
same,collision cross section,[24],515.28 ± 0.85 Å²
SKLLFSNTAAQK [_SK(GlyGly (K))LLFSNTAAQK_],collision cross section,[17],396.71 ± 0.37 Å²
same,collision cross section,[18],447.27 ± 13 Å²
VGIDTPDIDIHGPEGKLK [_VGIDTPDIDIHGPEGK(Methyl (K))LK_],collision cross section,[9],463.74 Å²
same,collision cross section,[10],542.59 ± 0.45 Å²
VLDSGAPIKIPVGPETLGR [_VLDSGAPIK(Acetyl (K))IPVGPETLGR_],collision cross section,[22],463.33 ± 3.4 Å²
same,collision cross section,[25],505.97 Å²
FDDTNPEKEEAK [_FDDTNPEK(Acetyl (K))EEAK_],collision cross section,[22],394.25 ± 1.3 Å²
same,collision cross section,[25],440.01 ± 0.78 Å²
LDEKENLSAK [_LDEK(Gluratylation)ENLSAK_],collision cross section,[23],373.82 ± 0.62 Å²
GEVQVSDKER [_GEVQVSDK(Methyl (K))ER_],collision cross section,[9],360.9 ± 0.67 Å²
same,collision cross section,[10],436.39 ± 5.2 Å²
VGLQVVAVKAPGFGDNR [_VGLQVVAVK(GlyGly (K))APGFGDNR_],collision cross section,[17],471.7 ± 1.6 Å²
same,collision cross section,[18],536.75 ± 1.1 Å²
DTGEKLTVAENEAETK [_DTGEK(Propionyl)LTVAENEAETK_],collision cross section,"charge state: 2, modification: Propionyl",443.51 Å²
DVNAAIAAIKTK [_DVNAAIAAIK(Malonyl)TK_],collision cross section,[14],406.2 ± 0.59 Å²
VFIGNLNTLVVKKK [_VFIGNLNTLVVK(Gluratylation)KK_],collision cross section,[24],521.05 ± 1.8 Å²
HHAAYVNNLNVTEEK [_HHAAY(Phospho (Y))VNNLNVTEEK_],collision cross section,[1],438.56 Å²
same,collision cross section,[2],495.42 ± 1.2 Å²
VFSIISSEKELK [_VFSIISSEK(Crotonyl)ELK_],collision cross section,[3],412.67 ± 0.34 Å²
LGSPSGKTGTCR [_LGSPSGK(GlyGly (K))TGTCR_],collision cross section,[18],454.35 ± 1.5 Å²
ALLQAKASGK [_ALLQAK(Formyl)ASGK_],collision cross section,"charge state: 2, modification: Formyl",340.27 ± 0.87 Å²
DSSPTTNSKLSALQR [_DSSPTTNSK(hydroxyisobutyryl)LSALQR_],collision cross section,[5],437.4 ± 0.29 Å²
same,collision cross section,[6],502.1 ± 2.1 Å²
VFSIISSEKELK [_VFSIISSEK(hydroxyisobutyryl)ELK_],collision cross section,[5],414.96 ± 0.83 Å²
SSFAYKDQNENR [_SSFAYK(Biotin)DQNENR_],collision cross section,[11],421.15 ± 1.9 Å²
same,collision cross section,[12],490.01 ± 0.34 Å²
DDSNLYINVK [_DDSNLY(Phospho (Y))INVK_],collision cross section,[1],368.08 ± 0.064 Å²
IHVQSSSDSSDEPAEKR [_IHVQSSSDSSDEPAEK(Biotin)R_],collision cross section,[12],513.52 Å²
APPIDRSILPTAPR [_APPIDR(Citrullination (R))SILPTAPR_],collision cross section,"charge state: 2, modification: Citrullination (R)",410.86 ± 0.21 Å²
same,collision cross section,[19],480.52 ± 0.41 Å²
VTPHPSPRGSPLPTPK [_VTPHPSPR(Methyl (R))GSPLPTPK_],collision cross section,[15],512.12 ± 9.6 Å²
VYIASSSGSTAIKK [_VYIASSSGSTAIK(Dimethyl (K))K_],collision cross section,[26],434.74 ± 1.3 Å²
same,collision cross section,[16],497.25 ± 0.75 Å²
LLFSNTAAQKLR [_LLFSNTAAQK(hydroxyisobutyryl)LR_],collision cross section,[5],408.17 ± 0.55 Å²
same,collision cross section,[6],486.85 ± 1.9 Å²
PSVGSQSNQAGQGKR [_PSVGSQSNQAGQGK(hydroxyisobutyryl)R_],collision cross section,[5],418.62 ± 0.53 Å²
same,collision cross section,[6],477.11 ± 9.7 Å²
IVSGKDYNVTANSK [_IVSGK(Dimethyl (K))DYNVTANSK_],collision cross section,[26],404.57 ± 0.47 Å²
same,collision cross section,[16],462.9 ± 1.6 Å²
GETASKLQSEISR [_GETASK(Crotonyl)LQSEISR_],collision cross section,[3],388.79 ± 0.79 Å²
same,collision cross section,[4],466.94 ± 1.6 Å²
ALLQAKASGK [_ALLQAK(Succinyl)ASGK_],collision cross section,[7],349.13 ± 0.82 Å²
DTPTSAGPNSFNKGK [_DTPTSAGPNSFNK(Butyryl)GK_],collision cross section,[20],412.93 ± 0.78 Å²
same,collision cross section,[21],464.51 ± 3.2 Å²
VGIDTPDIDIHGPEGKLK [_VGIDTPDIDIHGPEGK(Trimethyl (K))LK_],collision cross section,[13],543.29 ± 0.9 Å²
ILDLKTGTVK [_ILDLK(hydroxyisobutyryl)TGTVK_],collision cross section,[5],366.99 ± 1.3 Å²
LLRGVGGSHGR [_LLR(Methyl (R))GVGGSHGR_],collision cross section,"charge state: 2, modification: Methyl (R)",374.24 Å²
same,collision cross section,[15],456.7 ± 11 Å²
YEEIVKEVSTYIK [_YEEIVK(GlyGly (K))EVSTYIK_],collision cross section,[17],459.86 ± 0.94 Å²
same,collision cross section,[18],512.47 ± 1.1 Å²
FGTINIVHPKLGSYTK [_FGTINIVHPK(Crotonyl)LGSYTK_],collision cross section,[4],553.88 ± 2 Å²
LAEEENKAK [_LAEEENK(Acetyl (K))AK_],collision cross section,[22],348.53 ± 3.9 Å²
